Consider four molecules from US20230391882A1 (NUMAB THERAPEUTICS, published 2023).

The target in experiment [1] is T1, human PDL1 (human, UniProt Q9NZQ7 19-238, limits assumed). Briefly: cell-based or functional assay.
In experiment [2] the target is T2, human CD137 on the transgenic NF-kB Jurkat reporter cell line (human, UniProt Q07011 24-255). Nature of the experiment: cell-based or functional assay.
In experiment [3] the target is T1, human PDL1. Briefly: cell-based or functional assay. This is another data set of the same source.
Experiment [4] deals with T2, human CD137 on the transgenic NF-kB …. Nature of the experiment: cell-based or functional assay. This is another data set of the same source.
The target of experiment [5] is T1, human PDL1. Briefly: cell-based or functional assay. This is another data set of the same source.
For experiment [6], the target named is T2, human CD137 on the transgenic NF-kB …. Briefly: cell-based or functional assay. This is another data set of the same source.
The target in experiment [7] is T3, mesothelin (MSLN) on target cells (H226, MeT-5A) (UniProt Q13421 37-598, limits assumed). Briefly: cell-based or functional assay.
Experiment [8] concerns the target recombinant human mesothelin (human MSLN) (human, UniProt Q13421 296-580, limits assumed). Nature of the experiment: KD ratio told in running text; method not given.
Experiment [9] has as its target T3, mesothelin (MSLN) on target cells …. Briefly: cell-based or functional assay. The source holds these as a separate data set.
The target is the same in experiment [10]. Briefly: cell-based or functional assay. The source holds these as a separate data set.
Experiment [11] shares this target. Nature of the experiment: cell-based or functional assay. This is another data set of the same source.
The target in experiment [12] is soluble mesothelin (sMSLN) (UniProt Q13421 296-580, limits assumed). Nature of the experiment: cell-based or functional assay.
Experiment [13] deals with T3, mesothelin (MSLN) on target cells …. Nature of the experiment: cell-based or functional assay. The source holds these as a separate data set.
For experiment [14] the target is unchanged. Nature of the experiment: cell-based or functional assay. This is another data set of the same source.
The target is the same in experiment [15]. Nature of the experiment: cell-based or functional assay. This is another data set of the same source.
For experiment [16] the target is unchanged. Briefly: cell-based or functional assay. The source holds these as a separate data set.
Experiment [17] has the same target. Nature of the experiment: cell-based or functional assay. This is another data set of the same source.

Positions count from the first letter of the chain named. Read-outs that look alike come from different tables or passages of the source. Where only a bound is given, the exact number is not on record here.

B1: PRO1480 (38-27-A11 sc02 scDb-i/37-20-B03 sc09.1 scDb-o/19-01-H04 sc03 scFv) (other)
chain: DIQMTQSPASLSASVGDRVTITCQASQSIGTYLAWYQQKPGKPPKLLIYRAFILASGVPSRFSGSGSGTDFTLTISSLQPEDFATYYCQSNFYSDSTTIGPNAFGTGTKVTVLGGGGGSEVQLVESGGGLVQPGGSLRLSCAASGFSFSANYYPCWVRQAPGKGLEWIGCIYGGSSDITYDANWTKGRFTISRDNSKNTVYLQMNSLRAEDTAVYYCARSAWYSGWGGDLWGQGTLVTVSSGGGGSGGGGSGGGGSGGGGSIQMTQSPSSLSASVGDRVTITCQASQSISNRLAWYQQKPGKAPKLLIYSASTLASGVPSRFSGSGSGTDFTLTISSLQPEDFATYYCQSTYYGNDGNAFGTGTKVTVLGGGGGSEVQLVESGGGLVQPGGSLRLSCAASGFSFNSDYWIYWVRQAPGKGLEWIASIYGGSSGNTQYASWAQGRFTISRDNSKNTVYLQMNSLRAEDTAVYFCARGYVDYGGATDLWGQGTLVTVSSGGGGSGGGGSIQMTQSPSSLSASVGDRVTITCQSSESVYSNNQLSWYQQKPGQPPKLLIYDASDLASGVPSRFSGSGSGTDFTLTISSLQPEDFATYYCAGGFSSSSDTAFGGGTKLTVLGGGGGSGGGGSGGGGSGGGGSEVQLVESGGGLVQPGGSLRLSCAASGFSLSSNAMGWVRQAPGKGLEYIGIISVGGFTYYASWAKGRFTISRDNSKNTVYLQMNSLRAEDTATYFCARDRHGGDSSGAFYLWGQGTLVTVSS
Turning to B1, the “IC50 (read off the curve); NFAT reporter gene assay, blocked ligand PD-1” value (from here on “IC50 (read off the curve)”) in experiment [1] is approximately 500 pM. Also, in experiment [2], the “EC50 (read off the curve); NF-kB reporter gene assay” value was approximately 70 pM.

B2: PRO1124 (38-02-A04 sc06 Full scDb-i/33-03-G02 sc01 scDb-o) (bispecific antibody)
chain: DIQMTQSPSSLSASVGDRVTITCQASQSINDYLAWYQQKPGKAPKLLIYKASTLASGVPSRFSGSGSGTDFTLTISSLQPEDFATYYCQQGYIITDIDNVFGTGTKVTVLGGGGGSQVQLQESGPGLVKPSETLSLTCKASGFSFSNSYWICWVRQPPGKGLEWIGCTFVGSSDSTYYANWAKGRVTISKDSSKNQVSLKLSSVTAADTAVYFCARHPSDAVYGYANNLWGQGTLVTVSSGGGGSGGGGSGGGGSGGGGSLQMTQSPSSLSASVGDRVTITCQASQSINNVLAWYQQKPGKPPKLLIYRASTLASGVPSRFSGSGSGTDFTLTISSLQPEDFATYYCQSSYGNYGDFGTGTKVTVLGGGGGSQVQLQESGPGLVKPSETLSLTCKVSGFSFSSGYDMCWIRQPPGKGLEWIGCVVAGSVDITYYASWAKGRVTISVDSSKNQFSLKLSSVTAADTAVYYCARKDAYSDAFNLWGQGTLVTVSS
B2: the “IC50 (read off the curve)” value in experiment [3] is approximately 1000 pM. Moreover, the “EC50 (read off the curve); NF-kB reporter gene assay, rising part of the curve” value in [4] was approximately 100 pM.

B3: PRO885 (38-02-A04 sc01 scDb-i/33-03-G02 sc01 scDb-o) (bispecific antibody)
chain: B2 chain with A140V, V154I, K190V, V197F, F213Y, L261I, P302A
As for B3, the “IC50 (read off the curve)” value in experiment [5] is approximately 2000 pM. Also, in experiment [6], the “EC50 (read off the curve); NF-kB reporter gene assay, rising part of the curve” value was approximately 300 pM.

B4: PRO1872 (MSLN x CD3 x hSA) (54-22-H03-sc01 scFv/28-21-D09-sc04 scDb-i/23-13-A01-sc02 diS scDb-o) (other)
chain: DVVMTQSPSSLSASVGDRVTITCQASQIISSRSAWYQQKPGQPPKLLIYQASKLASGVPSRFSGSGSGTDFTLTISSLQPEDFATYYCQCTYIDSNFGAFGCGTKLTVLGGGGGSEVQLVESGGGLVQPGGSLRLSCAASGFSLSSYDMSWVRQAPGKGLAWIGASYASGPTYYASWAKGRFTISRDNSKNTVYLQMNSLRAEDTATYFCARGGWTGTSHSNIWGQGTLVTVSSGGGGSGGGGSGGGGSGGGGSDIQMTQSPSSLSASVGDRVTITCQSSQSVFSNNYLAWFQQKPGQSPKRLIYSASTLASGVPSRFSGSGSGTDFTLTISSLQPEDFATYYCLGSYACSSADCYVFGTGTKVTVLGGGGGSEVQLVESGGGLVQPGGSLRLSCAASGFSFSSSYWICWVRQAPGKCLEWVGCVFTGDGTTYYASWAKGRFTISRDNSKNTVYLQMNSLRAEDTATYFCARPVSVYYYGMDLWGQGTLVTVSSGGGGSGGGGSDIQMTQSPSSLSASVGDRVTITCQASESIGNYLAWYQQKPGKAPKLLIYSASTLASGVPSRFSGSGSGTDFTLTISSLQPEDFATYYCQSTDYGDSYIFGTGTKVTVLGGGGGSGGGGSGGGGSGGGGSEVQLVESGGGLVQPGGSLRLSCAASGISVSNDYYMCWVRQAPGKGLEWIGCISTYIGNTHYASWAKGRFTISRDNSKNTVYLQMNSLRAEDTAVYYCAKNAGYPGYRYAIDLWGQGTLVTVSS
notes: also called MSLNlowKDxCD3xhSA
With B4, the “EC50 (read off the curve); specific killing of H226 cells, in presence of 50 ng/ml sMSLN” value in experiment [7] was approximately 600 pM. In addition, the “fold better binding affinity (KD) than the MSLN-BDs of PRO2000, PRO2562, PRO2566 and PRO2567” value in experiment [8] is more than 5 fold. The “EC50 (read off the curve); activated CD8+ cells (CD69+) with H226 cells, with 50 ng/ml sMSLN” value in experiment [9] is approximately 200 pM. Moreover, in [10], the “EC50 (read off the curve); specific killing of H226 cells (high MSLN)” value is approximately 5 pM. For the same molecule, the “EC50 (read off the curve); specific killing of H226 cells, no sMSLN” value in [11] is approximately 50 pM. Besides, in experiment [12], the “increase of EC50 for killing high MSLN expressing target cells in the presence of 50 ng/ml sMSLN” value is approximately 8 fold and the “increase of EC50 for killing high MSLN expressing target cells in the presence of 500 ng/ml sMSLN” value is more than 75 fold. The “EC50 (read off the curve); activated CD8+ cells (CD69+) with H226 cells, without sMSLN” value in [13] is approximately 20 pM. In experiment [14], the “EC50 (read off the curve); specific killing of H226 cells, in presence of 500 ng/ml sMSLN” value is approximately 5000 pM. In [15], the “EC50 (read off the curve); specific killing of MeT-5A cells (low MSLN)” value is approximately 10 pM. Also, in experiment [16], the “EC50 (read off the curve); activated CD8+ cells (CD69+) with MeT-5A cells (low MSLN)” value was approximately 10 pM. Moreover, the “EC50 (read off the curve); activated CD8+ cells (CD69+) with H226 cells, with 500 ng/ml sMSLN” value in [17] is approximately 1000 pM.
